Measured values published in patent publication US10273305B2, “Bispecific CXCR4-CD4 polypeptides with potent anti-HIV activity” (Ablynx N.V., priority 2015, dated 2019).

B1: 15G11: anti-CXCR4 Nanobody, SEQ ID NO: 14 (protein)
VHH: EVQLVESGGGLVQAGDSLRVSCAASGRTSSYAMAWFRQAPGKEREFVGTISRTNSRTKYADFVEGRFTISRDNAKSTLSLQMTSLKPEDTAVYYCAAKWTGNSYHDYTWSKVDEYNVWGQGTQVTVSS
modifications: Nanobody Sequence
B2: 281F12-35GS-3F11: bispecific CXCR4-CD4 polypeptide, SEQ ID NO: 106 (protein)
chain: EVQLVESGGGLVQAGDSLRLSCAASGRAFSRYAMGWFRQAPGKEREFVAAIGWGPSKTNYADSVKGRFTISRDNAKNTVYLQMNTLKPEDTAVYSCAAKFVNTDSTWSRSEMYTYWGQGTQVTVSSGGGGSGGGGSGGGGSGGGGSGGGGSGGGGSGGGGSEVQLVESGGGSVQPGGSLTLSCGTSGRTFNVMGWFRQAPGKEREFVAAVRWSSTGIYYTQYADSVKSRFTISRDNAKNTVYLEMNSLKPEDTAVYYCAADTYNSNPARWDGYDFRGQGTQVTVSS
modifications: chains of the parent or of the whole protein
B3: 281E10: anti-CXCR4 Nanobody, SEQ ID NO: 6 (protein)
VHH: EVQLVESGGGLVQAGGSLRLSCKASGGTFNNYAMGWFRRAPGKEREFVAAITRSGVRSGVSAIYGDSVKDRFTISRDNVKNTLYLQMNTLKPEDTAVYTCAASAIGSGALRRFEYDYSGQGTQVTVSS
modifications: Nanobody Sequence
B4: 281A6: anti-CXCR4 Nanobody, SEQ ID NO: 8 (protein)
VHH: EVQLVESGGGLVQTGGSLRLSCAASGGTFNNYAMGWFRRAPGKEREFVAAISRSGVRTGVSALYGDSVKDRFTISRDNAKNTLYLQMNKMKPEDTAVYTCAASAIGSGALRRFEYDSSGQGTQVTVSS
modifications: Nanobody Sequence
B5: 281A5: anti-CXCR4 Nanobody, SEQ ID NO: 5 (protein)
VHH: EVQLVESGGGLVQAGGSLRLSCAASGRTFNNYAMGWFRRAPGKEREFVAAITRSGVRSGVSAIYGDSVKDRFTISRDNAKNTLYLQMNSLKPEDTAVYTCAASAIGSGALRRFEYDYSGQGTQVTVSS
modifications: Nanobody Sequence
B6: 281D4: anti-CXCR4 Nanobody, SEQ ID NO: 7 (protein)
VHH: EVQLVESGGGLVQAGGSLRLSCAASGGTFNNYAMGWFRRAPGKEREFVAAISRSGVRTGVSALYGDSVKDRFTISRDNAKNTLYLQMNKMKPEDTAVYTCAASAIGSGALRRFEYDSSGQGTQVTVSS
modifications: Nanobody Sequence
B7: 283F1: anti-CXCR4 Nanobody, SEQ ID NO: 12 (protein)
VHH: EVQLVESGGGLVQAGGSLRLSCVASVNIFGSIAMAWYRQAPGKQRNLVASISSGGRINYADSRKGRFTISRDNTKNTVHLQMNSLEPEDTAVYYCAAGRIGQRTLTFTPDYWGQGTQVTVSS
modifications: Nanobody Sequence
B8: 283B6: anti-CXCR4 Nanobody, SEQ ID NO: 10 (protein)
VHH: EVQLVASGGGLVQAGGSLRLSCAVSGTTFSVATLGWYRQAPGQQRALVADISSGGSTNYADSVRGRFTISRDNAKNLAYLQMNSLKPEDTAVYYCNARTSGWRTRSNYWGQGTQVTVSS
modifications: Nanobody Sequence
B9: 283E2: anti-CXCR4 Nanobody, SEQ ID NO: 11 (protein)
VHH: EVQLVESGGGLVQAGGSLRLSCAVSGTTFSVATLGWYRQAPGQQRALVADISSGGSTNYADSVRGRFTISRDNAKNLAYLQMNSLKPEDTAVYYCNARTSGWRTRSNYWGQGTQVTVSS
modifications: Nanobody Sequence
B10: 15A1: anti-CXCR4 Nanobody, SEQ ID NO: 15 (protein)
VHH: EVQLVESGGGLVQAGGSLRLSCAASGRTFSRAAMGWFRQAPGKEREFVGCALSSAGSALTADSVKGRFTISRDNAKNMVYLQMNNLKPEDTAVYSCVAGGYCTRAGVYPYWGQGTQVTVSS
modifications: Nanobody Sequence
B11: 01B6: anti-CD4 Nanobody, SEQ ID NO: 17 (protein)
VHH: EVQLVESGGGLVQSGGSLRLSCAASGFTFSGYWMYWVRQAPGKGLEWVSAISPGGGSTYYPDSVKGRFTISRDNAKNTLYLQMNSLKPEDTALYYCASSLTATHTYEYDYWGQGTQVTVSS
modifications: Nanobody Sequence

Legend:
CXCR4 [1] = biological target: T1, CXCR4 (Homo sapiens, UniProt P61073); test: Displacement of biotinylated SDF-1 on Caki cells expressing hCXCR4, flow cytometry; type: binding; settings: 30 nM biotinylated SDF-1
Protocol: In addition, CXCR4 Nanobodies were analysed for ligand competition by displacement of biotinylated SDF-1 on transient transfected Caki cells expressing hCXCR4 in flow cytometry. To this end, serial dilutions of Nanobodies were pre-incubated with 30 nM of biotinylated SDF-1 (R&D Systems Fluorikine kit) and incubated to Caki-CXCR4 cells for 1 hour at 4C, after which ligand binding was visualised using extravidin-PE. The biotin-SDF-1 competitor concentration used in this assay was below the EC50 value obtained in dose-titration, where IC50 values should reflect the Ki. Ligand displacement IC50 values were calculated, and compared to the NL4.3 (X4) neutralization potencies.

CXCR4 [2] = biological target: T1, CXCR4; test: CXCL12-AF647 binding inhibition on SupT1 cells by flow cytometry; settings: T-cells (SUPT-1); read-out: IC50 of blocking CXCL12AF647 binding to CXCR4
CXCR4 [3] = biological target: T1, CXCR4; test: [125I]-CXCL12 radio-ligand displacement on membranes of HEK293 cells transfected with CXCR4; type: binding; settings: 75 pM [125I]-CXCL12
Protocol: To this end, CXCR4 Nanobodies were analysed for their binding to HEK293T-CXCR4 cells, and their ability to compete with the ligand CXCL12 (or SDF-1a) for receptor binding in a radio-ligand displacement assay. The sequences of the respective CXCR4 Nanobodies are depicted in Table 3.1A.
Non-specific binding was determined in presence of 100 nM cold SDF-1. The assay was performed three times, and average percentages of SDF-1 inhibition and Ki values were calculated (Table 3.1B).

[4] = test system: HIV-1 CI#17 clinical isolate (clade B); test: HIV-1 CI#17 infection of PBMCs, p24; type: cell-based; settings: PBMC, average 2 donors
[5] = test system: CXCR4-using (X4) HIV-1 clone NL4.3; test: microbe, parasite or virus in culture; type: cell-based; settings: Example 10
[6] = biological target: interaction of CD4 with the viral gp120 protein (Homo sapiens, UniProt P01730); test: ELISA-based competition of CD4-gp120 interaction; type: binding; settings: 500 nM Nanobody; gp120 HIV-1 IIIB
Protocol: Besides its role on T-cells, CD4 also serves as primary receptor for HIV entry. Therefore purified CD4 Nanobodies were analysed for the capacity to block the interaction of CD4 with the viral gp120 protein. Monovalent His-tagged Nanobodies were purified from periplasmic extracts by affinity and desalting chromatography and used in an ELISA-based competition setup. In short, 1 μg/ml of gp120 HIV-1 IIIB (Immunodiagnostic) was captured by 20 μg/ml of sheep anti-gp120 antibody D7324 (Aalto Bio Reagents) previously coated in 96 well Maxisorp microtiter plates (Nunc) and blocked with 1% casein in PBS. In parallel, 0.5 μg/ml of biotinylated CD4 was incubated with 500 nM of the different purified Nanobodies in 100 μl 0.1% Casein/PBS. After 1 hour, the biotinylated CD4-Nanobody pre-mixes were incubated 1 hour with the captured gp120. Bound biotinylated CD4 was detected using HRP-conjugated Extravidin (Sigma E2886). A blocking mouse anti-CD4 IgG2a antibody (Diaclone, clone B-A1 cat#854.030.000) was used as positive control. Blocking activity was determined as loss of O.D. signal, as compared to wells where no Nanobody was added.

T1 sequence (P61073 whole entry): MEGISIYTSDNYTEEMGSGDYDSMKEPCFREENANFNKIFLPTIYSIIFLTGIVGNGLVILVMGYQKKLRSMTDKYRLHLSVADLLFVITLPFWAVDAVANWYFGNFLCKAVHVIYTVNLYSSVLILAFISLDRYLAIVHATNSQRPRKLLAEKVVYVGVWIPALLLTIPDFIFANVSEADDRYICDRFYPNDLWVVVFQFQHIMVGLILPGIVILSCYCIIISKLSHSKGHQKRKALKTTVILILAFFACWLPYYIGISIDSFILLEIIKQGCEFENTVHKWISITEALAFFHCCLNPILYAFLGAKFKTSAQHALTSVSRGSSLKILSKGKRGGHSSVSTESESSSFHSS

Molecule | [125I] SDF-1 displacement on CXCR4-Hek pKi +/SEM (n = 3) (CXCR4 [3]) | IC50 [4] | IC90 [4] | further results
B1 | – | – | – | ligand displacement to CXCR4 (CXCR4 [1]): hardly any ligand displacement
B2 | – | – | – | IC50 (CXCR4 [2]): 0.97 nM
B3 | 9.21 +/− 0.12 | 1.3 nM | 8.1 nM | –
B4 | 8.63 +/− 0.02 | 20 nM | 61 nM | –
B5 | 8.12 +/− 0.08 | 12 nM | > 57 nM | –
B6 | 8.27 +/− 0.05 | 15 nM | 33 nM | –
B7 | 7.93 +/− 0.41 | 2 nM | 9.1 nM | –
B8 | 8.78 +/− 0.24 | 2.8 nM | 9.9 nM | –
B9 | 8.29 +/− 0.11 | 3.7 nM | – | –
B10 | – | – | – | IC50 HIV1 neutralisation NL4.3 in MT-4 cells, panel of CXCR4 Nanobodies [5]: sub-nanoMolar range
B11 | – | – | – | blocking of in vitro interaction of CD4 with gp120 [6]: block
